Measured values reported in patent US9994626B2, “Stable polypeptides binding to human complement C5” (Swedish Orphan Biovitrum AB (publ), priority 2013, dated 2018).

How the values were obtained:
[1] = 3 month stability test at 37° C., RPC; type: physicochemical
From the text: The 2 weeks data from example 2 is included in Table VIII below to make the interpretation easier.

[2] = Accelerated stability study, 2 weeks at 37° C., SDS-PAGE and Reversed Phase HPLC (RPC)
Experimental: The stability was measured by the appearance of new variants after the stability testing by SDS-PAGE and Reversed Phase HPLC (RPC). In both analyses the initial sample and the one subjected to the stability study were run in parallel. For the SDS-PAGE, 7.5 μg protein was loaded into each well.
The purified proteins were formulated in 25 mM NaP/125 mM NaCl pH 7.0 and subjected to an accelerated stability study for 2 weeks at 37° C. The stability was measured by the appearance of new variants after the stability testing by SDS-PAGE and Reversed Phase HPLC (RPC). In both analyses the initial sample and the one subjected to the stability study were run in parallel. For the SDS-PAGE, 7.5 μg protein was loaded into each well.

[3] = after 2 weeks at 37° C., 25 mM NaP/125 mM NaCl pH 7.0

B1: PSI0383: C5 binding compound with N52S, D53E, D60E and loop [L2] substitutions D36R, D37Q, S39E (protein)
chain: AEAKYAKEVLEAWDEIDRLPNLTIEQWLAFINKLDRQPEQSSELLSEAKKLSESQAPKVEGSLAEAKEAANAELDSYGVSDFYKRLIDKAKTVEGVEALKDAILAALP
modifications: Modified bacterial sequence
[1]; RPC, 3 months, 37° C.
  3 months, 37° C. Main peak (% of total protein): 59 % of total protein
[1]; result in words
  proportion of protein in the original form after 3 months at 37° C. versus PSI0242 after 2 weeks: higher proportion of protein in the original form
[2]; 2 weeks at 37° C., conclusion in words
  stability when compared with PSI0242: increased stability
[2]; RPC after 2 weeks at 37° C., 25 mM NaP/125 mM NaCl pH 7.0
  Main peak (% of total protein): 91 % of total protein
[2]; RPC, 2 weeks, 37° C., data from example 2
  2 weeks, 37° C. Main peak (% of total protein): 91 % of total protein
[2]; [3]
  RPC post peaks: 0
  RPC prepeaks: 0
  SDS-PAGE bands: 1
